Patent US20170204382A1
Like-named read-outs stand apart in the source and are kept apart here.

T1: GDF11 (UniProt O95390)
T1 sequence (looked up): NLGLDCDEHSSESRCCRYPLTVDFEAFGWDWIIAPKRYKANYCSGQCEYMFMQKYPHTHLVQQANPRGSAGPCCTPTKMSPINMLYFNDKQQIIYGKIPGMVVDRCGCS

T2: Activin A (UniProt P08476)
T2 sequence (looked up): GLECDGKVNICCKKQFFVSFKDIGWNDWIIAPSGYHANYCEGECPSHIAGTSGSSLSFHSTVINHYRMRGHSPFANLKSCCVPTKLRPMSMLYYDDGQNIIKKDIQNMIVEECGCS


Key:
Assay in all cases: cell-based or functional assay
GDF11 [1] = target: T1, GDF11
Activin A [2] = target: T2, Activin A
GDF11 [3] = target: T1, GDF11; remark: listed apart in the source
Activin A [4] = target: T2, Activin A; remark: listed apart in the source

| Binder | IC50 (ng/mL), conditioned media (GDF11 [1]) | IC50 (ng/mL), conditioned media (Activin A [2]) | IC50 (ng/mL), conditioned media (GDF11 [3]) | IC50 (ng/mL), conditioned media (Activin A [4]) |
| --- | --- | --- | --- | --- |
| ActRIIB(20-128)-hFc (Fc fusion, not shown: a dimerising Fc or GST) GRGEAETRECIYYNANWELERTNQSGLERCEGEQDKRLHCYASWRNSSGTIELVKKGCWLDDFNCYDRQECVATEENPQVYFCCCEGNFCNERFTHLPEAGGPEVTYEP | 130 ng/mL | 158 ng/mL |  |  |
| ActRIIB(20-132)-hFc (Fc fusion, not shown: a dimerising Fc or GST) GRGEAETRECIYYNANWELERTNQSGLERCEGEQDKRLHCYASWRNSSGTIELVKKGCWLDDFNCYDRQECVATEENPQVYFCCCEGNFCNERFTHLPEAGGPEVTYEPPPTA | 87 ng/mL | 32 ng/mL |  |  |
| ActRIIB(21-131)-hFc (Fc fusion, not shown: a dimerising Fc or GST) RGEAETRECIYYNANWELERTNQSGLERCEGEQDKRLHCYASWRNSSGTIELVKKGCWLDDFNCYDRQECVATEENPQVYFCCCEGNFCNERFTHLPEAGGPEVTYEPPPT |  |  | 121 ng/mL | 325 ng/mL |
| ActRIIB(20-131)-hFc (Fc fusion, not shown: a dimerising Fc or GST) GRGEAETRECIYYNANWELERTNQSGLERCEGEQDKRLHCYASWRNSSGTIELVKKGCWLDDFNCYDRQECVATEENPQVYFCCCEGNFCNERFTHLPEAGGPEVTYEPPPT | 120 ng/mL | 44 ng/mL | 183 ng/mL | 201 ng/mL |

More lines, now with the values ahead:

| IC50 (ng/mL), conditioned media (GDF11 [1]) | IC50 (ng/mL), conditioned media (Activin A [2]) | IC50 (ng/mL), conditioned media (GDF11 [3]) | IC50 (ng/mL), conditioned media (Activin A [4]) | Binder |
| --- | --- | --- | --- | --- |
|  |  | 71 ng/mL | 100 ng/mL | ActRIIB(22-131)-hFc (Fc fusion, not shown: a dimerising Fc or GST) GEAETRECIYYNANWELERTNQSGLERCEGEQDKRLHCYASWRNSSGTIELVKKGCWLDDFNCYDRQECVATEENPQVYFCCCEGNFCNERFTHLPEAGGPEVTYEPPPT |
|  |  | 60 ng/mL | 43 ng/mL | ActRIIB(23-131)-hFc (Fc fusion, not shown: a dimerising Fc or GST) EAETRECIYYNANWELERTNQSGLERCEGEQDKRLHCYASWRNSSGTIELVKKGCWLDDFNCYDRQECVATEENPQVYFCCCEGNFCNERFTHLPEAGGPEVTYEPPPT |
|  |  | 69 ng/mL | 105 ng/mL | ActRIIB(24-131)-hFc (Fc fusion, not shown: a dimerising Fc or GST) AETRECIYYNANWELERTNQSGLERCEGEQDKRLHCYASWRNSSGTIELVKKGCWLDDFNCYDRQECVATEENPQVYFCCCEGNFCNERFTHLPEAGGPEVTYEPPPT |
